Source: patent US20250281586A1 (ELANCO US, published 2025)

Key:
[1] = target: T1, recombinant mouse IL-1RI Fc chimera (R&D 771-MR-100) (mouse, UniProt P13504 20-338); experiment: ELISA on coated mouse IL-1RI Fc chimera, detection with biotinylated anti-fIL-1β antibody
T1 construct: Coated on ELISA plates at 1 µg/ml; used in place of canine and feline IL-1RI, which were not commercially available; also called IL-1RI receptor; Fc part of the bought chimera not given; not described
T1 sequence (looked up): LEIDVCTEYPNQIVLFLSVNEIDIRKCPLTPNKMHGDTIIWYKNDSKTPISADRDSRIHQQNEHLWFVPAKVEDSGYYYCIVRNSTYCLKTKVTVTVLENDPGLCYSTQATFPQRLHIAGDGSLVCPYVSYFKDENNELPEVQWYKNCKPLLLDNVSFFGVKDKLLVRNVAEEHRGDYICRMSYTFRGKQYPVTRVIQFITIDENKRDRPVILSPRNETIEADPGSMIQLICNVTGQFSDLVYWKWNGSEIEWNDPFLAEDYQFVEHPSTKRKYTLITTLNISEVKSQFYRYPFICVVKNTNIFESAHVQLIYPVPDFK

[2] = target: T1, recombinant mouse IL-1RI Fc chimera …; experiment: ELISA on coated mouse IL-1RI Fc chimera
[3] = target: T1, recombinant mouse IL-1RI Fc chimera …; experiment: ELISA on coated mouse IL-1RI Fc chimera, detection with biotinylated anti-cIL-1β antibody

B1: purified feline IL-1β wild type of SEQ ID NO:38 (ligand)
chain: AAIQSQDYTFRDISQKSLVLSGSYELRALHLNGQNMNQQVVFRMSFVHGEENSKKIPVVLCIKKNNLYLSCVMKDGKPTLQLEMLDPKVYPKKKMEKRFVFNKTEIKGNVEFESSQFPNWYISTSQAEEMPVFLGNTKGGQDITDFIMESAS
notes: also called purified wild type feline IL-1β; recombinant feline wild type IL-1β
B1: binds [1].

B2: cIL1b-D145K-CMV-Ntt830-E4 VLPs (other)
chain 1: MGQYIKANSKFIGITERRRRPRRGSRSAPSSADANFRVLSQQLSRLNKTLAAGRPTINHPTFVGSERCKPGYTFTSITLKPPKIDRGSGGGSEEEEGGGSGSYYGKRLLLPDSVTEYDKKLVSRIQIRVNPLPKFDSTVWVTVRKVPASSDLSVAAISAMFADGASPVLVYQYAASGVQANNKLLYDLSAMRADIGDMRKYAVLVYSKDDALETDELVLHVDVEHQRIPTSGVLPV
chain 2: MGSAAMQSVDCKLQDISHKYLVLSNSYELRALHLNGENVNKQVVFHMSFVHGDESNNKIPVVLGIKQKNLYLSCVMKDGKPTLQLEKVDPKVYPKRKMEKRFVFNKIEIKNTVEFESSQYPNWYISTSQVEGMPVFLGNTRGGQDITKFTMEFSSTSHHHHHHGGCG
modifications: engineered free cysteine linked to the maleimide of SMPH bound to the VLP; lysine on the VLP surface derivatized with SMPH
notes: also called cIL1b-D145K-CMV-Ntt830-E4 vaccine; cIL-1b-D145K-CMV vaccine
B2: binds [2].

B3: canine IL-1β-D145K mutein antigen (ligand)
chain: B2 chain 2
notes: expressed in E. coli and purified by IMAC and gel filtration; also called cIL-1β-D145K antigen; cIL1b-D145K-C6Hcg
B3: binds [3].

B4: fIL-1b-D145K-CMV-Ntt830-E4 VLPs (other)
chain 1: B2 chain 1
chain 2: GSAAIQSQDYTFRDISQKSLVLSGSYELRALHLNGQNMNQQVVFRMSFVHGEENSKKIPVVLCIKKNNLYLSCVMKDGKPTLQLEMLDPKVYPKKKMEKRFVFNKTEIKGNVEFESSQFPNWYISTSQAEEMPVFLGNTKGGQDITKFIMESASTSHHHHHHGGCG
modifications: engineered free cysteine linked to the maleimide of SMPH bound to the VLP; lysine on the VLP surface derivatized with SMPH
notes: also called fIL-1b-D145K-CMV-Ntt830-E4 vaccine; fIL1b145K-CMV-Ntt830-E4 vaccine
B4: binds [2].

B5: canine IL-1β wild type of SEQ ID NO:29 (ligand)
chain: AAMQSVDCKLQDISHKYLVLSNSYELRALHLNGENVNKQVVFHMSFVHGDESNNKIPVVLGIKQKNLYLSCVMKDGKPTLQLEKVDPKVYPKRKMEKRFVFNKIEIKNTVEFESSQYPNWYISTSQVEGMPVFLGNTRGGQDITDFTMEFSS
notes: also called purified canine IL-1β wild type; wild type canine IL-1β
B5: binds [3].

B6: commercially available recombinant canine IL-1β protein (R&D 3747-CL-025) (ligand, UniProt Q28292 115-266, looked up)
chain: B5 chain
notes: Bought protein; also called recombinant canine IL-1β purchased from R&D system; commercially available canine IL-1β standard
B6: binds [3].

B7: feline IL-1β-D145K mutein antigen (ligand)
chain: B4 chain 2
notes: also called fIL-1β-D145K antigen
B7: binds [1].
